Measured values: doi:10.1101/2021.03.20.21254037

Biological target: truncated human ACE2 ectodomain (residues 19-613), AviTagged, biotinylated (human) (UniProt Q9BYF1)
Test: BLI

## SARS-CoV-2 RBD natural variant N439K (from UniProt P0DTC2 319-541) (domain or fragment)
  t½ (complex half-time): 1.85 min

## SARS-CoV-2 RBD natural variant N501Y (from UniProt P0DTC2 319-541) (domain or fragment)
  t½ (complex half-time): 5.49 min

## SARS-CoV-2 RBD natural variant Q493L (from UniProt P0DTC2 319-541) (domain or fragment)
  t½ (complex half-time): 3.52 min

## SARS-CoV-2 RBD natural variant S477N (from UniProt P0DTC2 319-541) (domain or fragment)
  t½ (complex half-time): 2.68 min

## SARS-CoV-2 RBD wild type (WHU1 isolate, amino acids 319-541) (from UniProt P0DTC2 319-541) (domain or fragment)
  t½ (complex half-time): 1.4 min
